Biological target: cleavage control protein containing an enterokinase cleavage site (Asp-Asp-Asp-Asp-Lys)

Protein	cleavage of the 48 kDa control protein into 32 and 16 kDa fragments (SDS-PAGE, Coomassie; periplasmic fraction, 30 C, 24 h)
periplasmically-targeted bovine enterokinase expressed with the DsbA periplasmic signal sequence (protein) IVGGSDSREGAWPWVVALYFDDQQVCGASLVSRDWLVSAAHCVYGRNMEPSKWKAVLGLHMASNLTSPQIETRLIDQIVINPHYNKRRKNNDIAMMHLEMKVNYTDYIQPICLPEENQVFPPGRICSIAGWGALIYQGSTADVLQEADVPLLSNEKCQQQMPEYNITENMVCAGYEAGGVDSCQGDSGGPLMCQENNRWLLAGVTSFGYQCALPNRPGVYARVPRFTEWIQSFLH	the periplasmically localized enterokinase is active in cleaving the target protein
periplasmically-targeted bovine enterokinase expressed with the MalE periplasmic signal sequence (protein) IVGGSDSREGAWPWVVALYFDDQQVCGASLVSRDWLVSAAHCVYGRNMEPSKWKAVLGLHMASNLTSPQIETRLIDQIVINPHYNKRRKNNDIAMMHLEMKVNYTDYIQPICLPEENQVFPPGRICSIAGWGALIYQGSTADVLQEADVPLLSNEKCQQQMPEYNITENMVCAGYEAGGVDSCQGDSGGPLMCQENNRWLLAGVTSFGYQCALPNRPGVYARVPRFTEWIQSFLH	the periplasmically localized enterokinase is active in cleaving the target protein
periplasmically-targeted bovine enterokinase expressed with the OmpA periplasmic signal sequence (protein) IVGGSDSREGAWPWVVALYFDDQQVCGASLVSRDWLVSAAHCVYGRNMEPSKWKAVLGLHMASNLTSPQIETRLIDQIVINPHYNKRRKNNDIAMMHLEMKVNYTDYIQPICLPEENQVFPPGRICSIAGWGALIYQGSTADVLQEADVPLLSNEKCQQQMPEYNITENMVCAGYEAGGVDSCQGDSGGPLMCQENNRWLLAGVTSFGYQCALPNRPGVYARVPRFTEWIQSFLH	the periplasmically localized enterokinase is active in cleaving the target protein

From patent US20150064751
